Laboratory results taken from the RNAGym collection of RNA variant scans (doi:10.1073/pnas.2313332121).

B1: TPR t1 (parent)
chain: GACCAAUCUGCCCUCAGAGCUCGAGAACAUCUUCGGAUGCAGAGGAGGCAGGCUUCGGUGGCGCGAUAGCGCCAACGUCCUCAACCUCCAAUGCAUCCCACCACAUGAUGAUGCCUGAAGAGCCUUGGUUUUUUG

Variants of: B1
Test: polymerase ribozyme fitness, log enrichment relative to wild type (log ratio); higher = more active; in vitro selection for triplet polymerase activity
How it was run: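 Mutant libraries were PCR-built and transcribed for each subunit of a heterodimeric triplet polymerase ribozyme and selected for one round in triplicate at −7 °C, frozen, before gel excision of extended constructs and streptavidin-bead capture. Input and output libraries were Illumina-sequenced, keeping genotypes with ≥10 input reads and ≥1 read per output. Fitness is a logarithmic ratio of genotype to wild-type enrichment, in base 2, using inverse-variance-weighted replicate averages.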

| Variant | polymerase ribozyme fitness (log ratio) |
| --- | --- |
| G45A C88U | -0.289 |
| G45A C53A U78C U109G G110U A121U | -3.1 |
| G45A C56U A90U | -1.57 |
| G45A C53G U59G C104A U112A | -0.739 |
| A46C G120C | 1.36 |
| A46G C56A C62G U130G U131C | -4.26 |
| G45U C94U A111U G127U | -3.61 |
| G45U G77C | -1.17 |
| A46C C49A G63A | -0.445 |
| G45C C70U | -1.4 |
| G45U A50U G60A C62U | -1.75 |
| G45A C98U U106A | -1.28 |
| G45C C104A G120A | -1.45 |
| G45A G113A C115U | -3.5 |
| G45A G60A | -1.47 |
| A46C C86U C88A A121C U130C | 0.304 |
| G45A C53G A83G G117A | -3.23 |
| A46C C56U C72U U78A A90G C94U A111C | -0.367 |
| G45C G71U A91G C101U G110A | -5.08 |
| G45A A68U C104U U109C | -6.38 |
| G45A G69A U87A U125A | -3.37 |

| Variant | polymerase ribozyme fitness (log ratio) |
| --- | --- |
| G45A C64U C86U C115A C123G | -1.22 |
| G45C C101G G122A | -3.08 |
| G45U A46C U54C A90G | -1.94 |
| G45A U59C C62G | -5.53 |
| G45A C72A U92G | -2.71 |
| A46G G48A | -0.934 |
| G45A C70A C85A U133C | -4.78 |
| A46C C72A | 0.257 |
| A46C C72U | -1.13 |
| G45U G117A | -1.62 |
| G45U G117U | -3.43 |
| A46C C101G | -2.34 |
| A46C C72U U78C G93U G122A U133G | -3.05 |
| G45C C56U U81G G113C | -4.36 |
| G45U A66G | -2.32 |
| A46G C49U C86A G93A | -2.56 |
| G45U A46U | -2.3 |
| G45U A46C | -2.05 |
| G45U C72A C114A C123G U133A | -2.6 |
| A46G C86A G120C | -0.884 |
| A46G A50U C88A C89A C124A U133A | -0.0922 |

| Variant | polymerase ribozyme fitness (log ratio) |
| --- | --- |
| G45U G47U C53A G57A G58U C86A | -2.17 |
| G45U G47C G52A A83U C124U | -3.57 |
| G45U C62U | -1.63 |
| A46G C86G C101A C114U | -4.69 |
| G45U A50U G58C C114G | -5.4 |
| G45U U116A | -4.04 |
| G45U U116C | -1.67 |
| G45C G113C | -2.91 |
| A46G A83G | -0.884 |
| G45C C73U G117A G135U | -4 |
| G45U U78C C79A C123A U126C | -3.45 |
| G45U A74C G77A U112C | 1.05 |
| G45A G48U G93A | -3.09 |
| G45A C88A U112G | -0.116 |
| G45A U131A | -0.734 |
| G45A U131G | -0.996 |
| G45U G71C | -2.68 |
| G45C C80U U87A | -2.93 |
| A46C C79A C85G | -5.69 |
| G45C G48U G60A G61A A83C | -3.56 |
| G45C U129C | -2.28 |

| Variant | polymerase ribozyme fitness (log ratio) |
| --- | --- |
| A46C U54A A66C U87G G113U | -5.68 |
| A46G C53G A111G | 1.36 |
| A46C G69A C72A | -4.32 |
| G45A C124U | 0.272 |
| G45C G110C | -5.03 |
| G45A A74G A95U | -1.3 |
| G45U A84C C94A | -2.59 |
| G45A G48U C49A C53U C115G | -3.77 |
| G45U C70A | -2.74 |
| G45C C102A | -3.26 |
| G45U U54A | -1.35 |
| G45A C72U | -0.796 |
| G45C U132A | -1.99 |
| A46G C76U C94G G120C | -1.42 |
| A46G G47U | -1.31 |
| A46C U78C C101G | -2.77 |
| G45C G63C | -2.1 |
| G45U C72G C114A | -2.66 |
| A46C C53G G57C A66C C115U G122A | -6.53 |
| G45U C49U G61A C115G | -2.62 |
